Measured values published in patent US20260116983A1 (University of California, published 2026).
Where a chain is given by its changes, count along the chain named.

T1: cynomolgus uPAR (recombinant) (cynomolgus monkey, UniProt Q9GK78 23-303, limits assumed)
T1 construct: also called cyno uPAR; AF647-cyno uPAR
T1 sequence (looked up): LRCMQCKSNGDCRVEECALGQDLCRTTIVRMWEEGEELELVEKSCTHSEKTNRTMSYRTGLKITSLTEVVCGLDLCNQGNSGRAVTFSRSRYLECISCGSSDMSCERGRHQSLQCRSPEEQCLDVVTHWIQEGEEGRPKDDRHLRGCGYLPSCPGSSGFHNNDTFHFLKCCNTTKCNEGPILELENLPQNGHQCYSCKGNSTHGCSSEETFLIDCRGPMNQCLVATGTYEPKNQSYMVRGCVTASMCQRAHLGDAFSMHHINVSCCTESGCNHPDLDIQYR

B1: Antibody 3595 (antibody, human IgG1, V domains shown)
VH: EVQLRQSGPELVKPGASVKISCKASGYTFTDYYMNWVKQSHEKSLEWIGNINPNNGGTDYNQKFKGKATLTVDKSSSTAYMELRSLTSEDSAVYYCARSYGSRFPYWGLGTLVTVSA
VL: DIQMTQTTSSLSASLGDRVTISCRASQDITNYLSWYQQKPDGTVKLLIFYTSFLQSGVPLRFSGSGSGADYSLTISNLEQEDFATYFCQQGHTLPWTFGGGTKLEIK
notes: Chimeric: mouse VH/VL linked to Herceptin (trastuzumab) human IgG1 / kappa constant regions
B2: Antibody 11857 (antibody, human IgG1, V domains shown)
VH: B1 VH
VL: B1 VL with S52A, F53V, V58F
B3: Antibody 8163 (antibody, human IgG1, V domains shown)
VH: EVQLVESGGGLVQPGESLTLSCDSNEFDFPSHDMSWVRKTPEKRLELVAAIDSDGGLTYYSNSRERRFIISRDNTKNTLYLQMRSLRSEDTALYYCARRRASYWYFDVWGTGTTVTVSS
VL: DILLTQSPAILPVSPGERVSFSCRASQNIGTSIHWYQQRTNGSPRLLIKYASESISGIPSRFSGSGSGTDFTLSINGVESEDIGDYYCQQSNSWPTFGGGTKLEIK
notes: as for B1
B4: Antibody 3159 (antibody, human IgG1, V domains shown)
VH: QVTLKESGPGILQSSLTLSLTCSLSGFSLSTSGMGVSWIRQPSGKGLEWLAHIYWDDDKRYNPSLKTRLTISKDASRDQVFLKIISVDTADTGTYYCGRRVRNYFSGTSYWYFDVWGTGTTVTVSS
VL: DVLMTQTPLSLSVSLGDQASISCRSSQNILHRTGNTYLEWYLQKPGQSPKLLIYKVSNRFSGVPDRFSGSGSGTDFTLKISRLEAEDLGVYYCFQGSYVPFTFGSGTKLEMK
notes: as for B1

biological target: T1, cynomolgus uPAR (recombinant); assay: ELISA, plate-coated cyno uPAR
Description: (§1) To ensure the cross-reactivity of the 12 lead candidates was maintained with the Herceptin constant region, their binding to human and cyno uPAR was evaluated by ELISA (FIG. 3A).
(§2) Nunc MaxiSorp™ flat-bottom 96-well plates were coated with human or cyno uPAR (3.19 μg/mL) at 4° C. overnight, and plates were washed with wash buffer and blocked with 5% non-fat dry milk. A standard log serial dilution of each antibody candidate was added to the uPAR-coated plates and incubated at 4° C. overnight. Plates were washed three times and incubated with 50 μL of HRP-conjugated goat anti-human (H+L) antibody (Biorad). After a two-hr incubation, plates were washed, and 100 μL of 1-Step™ Turbo TMB-ELISA Substrate Solution (Thermo Scientific) was added to each well. The reaction was quenched with 2M H₂SO₄ for 5 min at room temperature, and the optical density of each well was measured at 450 nm using a SpectraMax190 microplate reader.

| Binder | EC50 |
| --- | --- |
| B1 | 0.1 nM |
| B2 | 0.18 nM |
| B3 | 0.15 nM |
| B4 | 0.27 nM |

biological target: T2, human uPAR (recombinant protein used in ELISA and BLI) (human, UniProt Q03405 23-305, limits assumed); assay: ELISA, plate-coated human uPAR
T2 construct: Whole entry named; also called biotinylated human uPAR
Description: as §1, §2

T2 sequence (Q03405 23-305 limits assumed): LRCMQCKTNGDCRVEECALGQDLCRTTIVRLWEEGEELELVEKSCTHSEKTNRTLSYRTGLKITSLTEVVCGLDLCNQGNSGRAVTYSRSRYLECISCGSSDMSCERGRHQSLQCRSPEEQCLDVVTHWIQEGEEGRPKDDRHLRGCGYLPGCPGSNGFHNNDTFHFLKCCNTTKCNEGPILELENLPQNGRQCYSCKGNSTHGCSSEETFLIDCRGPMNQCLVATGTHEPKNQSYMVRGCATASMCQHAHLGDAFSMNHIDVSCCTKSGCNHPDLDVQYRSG

| Binder | EC50 |
| --- | --- |
| B1 | 0.05 nM |
| B2 | 0.52 nM |
| B3 | 0.41 nM |
| B4 | 0.53 nM |

biological target: T2, human uPAR (recombinant protein used in …); assay: BLI (Octet HTX)
Description: (§3) Kinetic constant ranges for Octet HTX were between 1 mM to 10 pM.

| Binder | Kd |
| --- | --- |
| B2 | 6.37 nM |
| B4 | < 0.01 nM |

biological target: T1, cynomolgus uPAR (recombinant); assay: BLI (Octet HTX)
Description: as §3

| Binder | Kd |
| --- | --- |
| B2 | 8.48 nM |
| B4 | 934 nM |

biological target: T3, human uPAR displayed on the surface of MDA-MB-231 cells (human, UniProt Q03405 23-305); assay: flow cytometry on MDA-MB-231 cells
T3 construct: whole, on cells; also called cell-surface uPAR; cellular uPAR
T3 sequence (Q03405 23-305): as the sequence (Q03405 23-305 limits assumed) above

| Binder | EC50 |
| --- | --- |
| B2 | 0.545 µg/mL |
| B4 | 0.188 µg/mL |

biological target: T2, human uPAR (recombinant protein used in …); assay: BLI (Octet HTX); repeated row of the table
Description: as §3

| Binder | Kd |
| --- | --- |
| B2 | 6.37 nM |

biological target: T1, cynomolgus uPAR (recombinant); assay: BLI (Octet HTX); repeated row of the table
Description: as §3

| Binder | Kd |
| --- | --- |
| B2 | 8.48 nM |

biological target: T3, human uPAR displayed on the surface of …; assay: cell-based or functional assay

| Binder | ADC Cytotoxicity EC50 | ADC Cytotoxicity Max % | ADCC NK-92 EC50 | ADCC NK-92 Max % | ADCC PBMCs EC50 | ADCC PBMCs Max % | Adhesion blocking EC50 |
| --- | --- | --- | --- | --- | --- | --- | --- |
| B1 | 0.66 nM | 34.8% | 0.2 nM | 21.9% | 0.1 nM | 55.6% | > 10000 nM |
| B2 | 0.76 nM | 35.2% | 5.59 nM | 27.2% | 0.35 nM | 52% | 940 nM |
| B3 | 0.57 nM | 28.7% | 1.14 nM | 18.8% | 0.09 nM | 57.5% | 5400 nM |
| B4 | 0.75 nM | 32% | 0.887 nM | 28.2% | 0.11 nM | 47.4% | 1610 nM |

biological target: T3, human uPAR displayed on the surface of …; assay: flow cytometry (FACS) on MDA-MB-231 cells
Text: Antibodies generated by immunizing animals with suPAR, which lacks the cell surface anchoring motif, can target protein regions that are not accessible for membrane-bound uPAR. […] Thus, FACS was applied to evaluate the cell-surface uPAR recognition by each antibody candidate under different concentrations of MDA-MB-231 cells, a triple-negative breast cancer cell line with high uPAR expression (FIG. 2).
MDA-MB-231 cells were harvested with TrypleE and resuspended in FACS buffer (PBS+1% BSA) to 2×10⁶ cells/mL before being aliquoted to a 96-well plate (100 μL, 2×10⁵ cells/well). Cells were pelleted by centrifuging the microplate for 5 min at 400 RCF and resuspended in PBS containing serially diluted antibodies to a maximum concentration of 600 nM, followed by a 50 min incubation at 4° C. Cells were then washed three times with PBS and incubated with an AlexaFluor488-conjugated goat anti-human IgG for 50 min at 4° C. in the dark. Finally, cells were washed twice with FACS buffer and resuspended in 80 μL for FACS analysis in a Bio-rad S3e Cell Sorter.

| Binder | Cellular recognition Max % | EC50 |
| --- | --- | --- |
| B1 | 2280% | 0.453 nM |
| B2 | 1940% | 2.07 nM |
| B3 | 2330% | 0.69 nM |
| B4 | 1830% | 0.916 nM |

biological target: T3, human uPAR displayed on the surface of …; assay: flow cytometry on MDA-MB-231 cells; repeated row of the table

| Binder | EC50 |
| --- | --- |
| B2 | 0.545 µg/mL |

biological target: T3, human uPAR displayed on the surface of …; assay: cell-based or functional assay; remark: another data set of the same source

| Binder | ADCC PBMCs EC50, fold lower than 2G10 |
| --- | --- |
| B3 | 10 to 96 fold |
